Reference: article PMC10072977 (Biochemical and Biophysical Research Communications, 2023)

Target: biotinylated SARS-CoV-2 WT RBD (Kactus Biosystems, CoV-VM4BDB) (SARS-CoV-2, UniProt P0DTC2, biotin)
Experiment: ELISA

B1: rabbit monoclonal antibody (RmAb) 9H1 (antibody, V domains shown)
VH: QSVEESGGRLVTPGTPLTLTCTVSGFSLSRYAMSWVRQAPGKGLEWIGIIVDSGHTAYASWAKGRFTISRTSTTVDLKMTSLTTEDTATYFCARETGGGAFYVFEFWGPGTVVTVSS
VL: QVLTQTPSSVSAAVGGTVTINCQASEDIYDNLVWYQQKPGQPPKLLIYDASTLAFGVSSRFRGSGSGTHFTLTMRDVQCDDAATYYCQGEFSCSSGDCTAFGGGTEVVVK
binding result: binds
